Data on 30 sequences can be found in the nanobody polyreactivity screen of Harvey et al. (2022).

The data set in a line: yeast display, Sf9 membrane polyspecificity reagent, FACS + sequencing; frameworks hold sequencing errors. In short, it runs like this:
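Nanobodies came from a synthetic yeast display library in Saccharomyces cerevisiae BJ5465, induced with galactose for 36–48 hours and stained for 1 hour at 4 °C with 10% biotinylated, detergent-solubilized Sf9 membrane reagent. Cells were enriched on streptavidin microbeads and then FACS-sorted, with low and high (top ~1%) gates set on anti-HA fluorescence for expression and streptavidin fluorescence for reagent binding. Each polyreactivity label reflects the gate a clone came from. Genes were amplified by colony PCR, sequenced by MiSeq 2 × 250 and filtered by CDR length.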
Regarding “QVQLVESGGGLVQAGGSLRLSCAASGSIFGPYAMGWYRQAHGKERELVAAITISGGSTYYADSVKRRFTISRDNAKNTVYLQINSLKPEDTAVYYCAADYWVDYEYDYYWEYNYWGQGSQVTVSS”, the “polyreactivity (PSR sort gate)” value is recorded as “high polyreactivity”.
Consider “QVQLVESGGGLVQAGGSLRLSCAASGSIFGPYAMGWYRQAPGKERELVAAITWSGDSTYYADSVKGRFTISRDNAKNTVYLQMNSLKTEDTAVYYCAAETFIWGQGTQVTVSS”, for which the “polyreactivity (PSR sort gate)” value is given as “low polyreactivity”.
As for “QVQLVESGGGLVQAGGSLRLSCAASGSIFGPYAMGWYRQAPGKERELVAAITWTGGRTYYADSVKGRFTISRDNAKNTVYLQMISLNPEDTAVYYCAADYSPSTWYLYYTLFYYWGQGTQVTVSS”, the “polyreactivity (PSR sort gate)” value is listed as “low polyreactivity”.
On to “QVQLVESGGGLVQAGGSLRLSCAASGSIFGPYAMGWYRQAPGKERELVAGITRSVGSTYYADSVKGRFTISRDNAKNTVFLQMNSLKPEDTAVYYCNAKWLYSRWAGYDYWGQGTQVTVSS”, for which the “polyreactivity (PSR sort gate)” value is on record as “low polyreactivity”.
On to “QVQLVESGGGLVQAGGSLRLSCAASGSIFGPYAMVWYRQAPGKERELVAAISSRGSSTYYADSVKGRFTISRDNAKNTVYLQMNSLKPEDTAVYYCAALYYVYGYDYWGQGTQVTVSS”, for which the “polyreactivity (PSR sort gate)” value was “high polyreactivity”.
In the case of “QVQLVESGGGLVQAGGSLRLSCAASGSIFGQYVMGWYRQAPGKERELVAAITRRGGTTYYADSVKGRFTISRDNAKNTVYLQMNSLKPEDTAVYYCAARVRVPQTARLHEYWGQGTQVTVSS”, the “polyreactivity (PSR sort gate)” value is “high polyreactivity”.
For the sequence “QVQLVESGGGLVQAGGSLRLSCAASGSIFGRNAMGSSRQAPGKERELVAAITWSGDSTYYADSVKGRFTISRDNAKNTVYLLMNSLKPEDTAVYYCAAGTATDVASIGATKDYDYWGQGTQVTVSS”, the “polyreactivity (PSR sort gate)” value is recorded as “low polyreactivity”.
Consider “QVQLVESGGGLVQAGGSLRLSCAASGSIFGRNAMGWYRQAPGKEREFVATITSRGGRTYYADSVKGRFTISRDNAKNTVYLQMNSLKPEDTAVYYCAADTYISTLKKYRLGDYWGQGTQVTVSS”, for which the “polyreactivity (PSR sort gate)” value was “low polyreactivity”.
“QVQLVESGGGLVQAGGSLRLSCAASGSIFGRNAMGWYRQAPGKERELVAAINSGGSTNYADSVKGRFTISRDNAKNTVYLQMNSLKPEDTAVYYCAARTYSSGRYYGYVAFYYWGQGTQVTVSS”: the “polyreactivity (PSR sort gate)” value is listed as “high polyreactivity”.
For the sequence “QVQLVESGGGLVQAGGSLRLSCAASGSIFGRNAMGWYRQAPGKERELVAVISKRSGNTYYADSVKGRFTISRDNAKNTVYLQLNSLKPEDTAVYYCNAVDQKLLRYDYWGQGTQVTVSS”, the “polyreactivity (PSR sort gate)” value is “high polyreactivity”.
Turning to “QVQLVESGGGLVQAGGSLRLSCAASGSIFGRNAMGWYRQEPGKERELVARISYIGGSTYYADSVKGRFTISRDNAKNTVYLQMNSLKPEDTAVYYCAKRYGFRYKRMDYWGQGTQVTVSS”, the “polyreactivity (PSR sort gate)” value is on record as “low polyreactivity”.
“QVQLVESGGGLVQAGGSLRLSCAASGSIFGRNVMGWYRQAPGKERELVARITRGGSTNYADSVKGRFTISRDNAKNTVYLQMNRLQPEDTAVYYCAAGARQYRGVPDRYGYWGQGTQVTVSS”: the “polyreactivity (PSR sort gate)” value is on record as “low polyreactivity”.
As to “QVQLVESGGGLVQAGGSLRLSCAASGSIFGRYAMGLYRQAPGKERELVATISRTGGSTNYADSVKGRFTISRDNAKNTVSLQMNSLKPEDTAVYYCNAASVYANYYTYVDYYTEGFYYWGQGTQVTVSS”, the “polyreactivity (PSR sort gate)” value is “low polyreactivity”.
As for “QVQLVESGGGLVQAGGSLRLSCAASGSIFGRYAMGWYRQAPGKERELVAAISRTGVSTYYADSVKGRFTISRDNAKNTVYLQMNSLKPEDTAVYYCNAVRLSWQNTYYYWGQGTQVTVSS”, the “polyreactivity (PSR sort gate)” value was “high polyreactivity”.
“QVQLVESGGGLVQAGGSLRLSCAASGSIFGRYAMGWYRQAPGKERELVAAISWNGGSTYYADSVKGRFTISRDNAKNTVYLQMNILKPEDTAVYYCAADSGYSGYYYWGQGTQVTVSS”: the “polyreactivity (PSR sort gate)” value is listed as “high polyreactivity”.
In the case of “QVQLVESGGGLVQAGGSLRLSCAASGSIFGRYAMGWYRQAPGKERELVAAITRSGVSTYYADSVKGRFTISGDYAKNTVYLQMNSLKPEETAVYYCNAYYRIRSSPYGYYYWGEGTQVTVSS”, the “polyreactivity (PSR sort gate)” value is listed as “high polyreactivity”.
With “QVQLVESGGGLVQAGGSLRLSCAASGSIFGRYGAIGWYRQAPGKERELVAAINRSGGITYYADSVKGRFTISRDNAKNTVYLQMNSLKPEDTAVYYFNADAYYYSTSPRGAFDWPYDYWGQGTQVNVSS”, the “polyreactivity (PSR sort gate)” value was “low polyreactivity”.
Turning to “QVQLVESGGGLVQAGGSLRLSCAASGSIFGRYTMGWYRQAPGKERELVARIRSGGTTYYADSVKGRFTISRDNAKNTVYLQMNSLKPEDTAVYYCAAGRDARDYYSWGQGTQVTVSS”, the “polyreactivity (PSR sort gate)” value is recorded as “high polyreactivity”.
Consider “QVQLVESGGGLVQAGGSLRLSCAASGSIFGRYVKGWYRQAPGKERELVATISSGGSTYYADSVKGRFTISRDNAKNTVYFQMISLKPEDTAVYYCAASYSRFVDWIGDPGYDYWGQGTQVTVSS”, for which the “polyreactivity (PSR sort gate)” value was “low polyreactivity”.
For “QVQLVESGGGLVQAGGSLRLSCAASGSIFGRYVKGWYRQAPGKERELVATISSGGSTYYADSVKGRFTISRDNAKNTVYLQMNSLKPEDTAVYYCAASYSRFVDWIGDPGYDYWGQGTQVTVSS”, the “polyreactivity (PSR sort gate)” value is listed as “low polyreactivity”.
Consider “QVQLVESGGGLVQAGGSLRLSCAASGSIFGRYVMGWYRQAPGKEREFVAAITYSGSSTYYADSVKGRFTISRDNAKNTVYLQMNSLKPEDTAVYYCNTYPRSFYWMGYWGQGTQVTVSS”, for which the “polyreactivity (PSR sort gate)” value is given as “high polyreactivity”.
Take “QVQLVESGGGLVQAGGSLRLSCAASGSIFGSYAKGCYIQAPGKERELVAAITRAGSTNYADSVKGRFTISRDNGKNTVYLQMNSLKPEDTAVYYCNATGKSTYVLSPVPGAYDYWGQGTQVTVSS”: the “polyreactivity (PSR sort gate)” value is reported as “low polyreactivity”.
Turning to “QVQLVESGGGLVQAGGSLRLSCAASGSIFGSYAMGWYRQAPGKEMELVAAISGSGGRTYYADSVKGRFTISRDNAKNTVYLKMNSLKPEDTAVYYCSAAYPRVTYKYGYYWGQGTQVTVSS”, the “polyreactivity (PSR sort gate)” value is given as “high polyreactivity”.
With “QVQLVESGGGLVQAGGSLRLSCAASGSIFGSYAMGWYRQAPGKERALVAAMSRSGITYYADSVKGRFTISRDNAKNTVYLQMNSLKPEDTAVYYCNADVSWWGYHYDYWGQGTQVTVLS”, the “polyreactivity (PSR sort gate)” value is “high polyreactivity”.
For the sequence “QVQLVESGGGLVQAGGSLRLSCAASGSIFGSYAMGWYRQAPGKERELVAAIRWRGGSTYYADSVKGRFTISRDNAKNTVYLQMNSLKPEDTAVYYCNAVTHYPVWVSGVGYDYWGQGTQVTVSS”, the “polyreactivity (PSR sort gate)” value is on record as “high polyreactivity”.
Take “QVQLVESGGGLVQAGGSLRLSCAASGSIFGSYAMGWYRQAPGKERELVAAISYRGGRTYYADSVKGRFTISRDNAKNSVYLQMNSLKPEDTAVYYCNARARNSPPYDYWGQGTQVTVSS”: the “polyreactivity (PSR sort gate)” value is reported as “high polyreactivity”.
Take “QVQLVESGGGLVQAGGSLRLSCAASGSIFGSYAMGWYRQAPGKERELVAAITSGGSTHYADSVKGRFTISRDNAKNTVYLQMNSLKPEDTAVYYCNAQALRLFWRYDYWGLGTQVTVSS”: the “polyreactivity (PSR sort gate)” value is listed as “low polyreactivity”.
“QVQLVESGGGLVQAGGSLRLSCAASGSIFGSYTMGWYRQAPGKERELVAAISLGGGSTYYADSVKGRFTISRDNAKNTVYLQMNSLKPEDTAVYYCAAVQIVSGTYDYYWGQGTQVTVSS”: the “polyreactivity (PSR sort gate)” value was “low polyreactivity”.
In the case of “QVQLVESGGGLVQAGGSLRLSCAASGSIFGSYVMGWYRQAPGKERELVAAISKSGGRTYYADSVKGRFTISRDNAKNTVYLQMKSLKPEDTAVYYCAVLPRVKDGTGGDYWGHGTQVTVSS”, the “polyreactivity (PSR sort gate)” value was “high polyreactivity”.
For the sequence “QVQLVESGGGLVQAGGSLRLSCAASGSIFGTNAMGGYRQAPGKETELVADISGSGGTTYYADSVKGRFTISRDNAKNTVDLQMNSLKPEDTAVYYCAAKGRAGYGYTAYANDYGGQGTQVTVSS”, the “polyreactivity (PSR sort gate)” value was “low polyreactivity”.
